What was measured:
Assay in all cases: ITC
MBP–Nab2p NLS F236L = biological target: T1, MBP–Nab2p NLS F236L (S. cerevisiae, UniProt P32505 201-251, F236L)
T1 sequence: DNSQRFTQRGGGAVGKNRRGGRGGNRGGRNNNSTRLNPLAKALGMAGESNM

MBP–Nab2p NLS F236A = biological target: T2, MBP–Nab2p NLS F236A (S. cerevisiae, UniProt P32505 201-251, F236A)
T2 sequence: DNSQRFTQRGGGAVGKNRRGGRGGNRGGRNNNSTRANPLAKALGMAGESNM

MBP–Nab2p NLS R235A = biological target: T3, MBP–Nab2p NLS R235A (S. cerevisiae, UniProt P32505 201-251, R235A)
T3 sequence: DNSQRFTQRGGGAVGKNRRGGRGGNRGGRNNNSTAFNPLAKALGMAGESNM

MBP–Nab2p NLS R235H = biological target: T4, MBP–Nab2p NLS R235H (S. cerevisiae, UniProt P32505 201-251, R235 to histidine)
T4 sequence: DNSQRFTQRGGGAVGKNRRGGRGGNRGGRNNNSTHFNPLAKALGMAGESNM

[1] = biological target: T5, MBP–Nab2p NLS, all of the arginines mutated to lysines (S. cerevisiae, UniProt P32505 201-251, R218K | R219K | R222K | R226K | R229K)
T5 sequence: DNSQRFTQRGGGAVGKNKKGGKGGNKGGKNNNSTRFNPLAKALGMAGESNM

B1: Kap104p (receptor)
chain: MASTWKPAEDYVLQLATLLQNCMSPNPEIRNNAMEAMENFQLQPEFLNYLCYILIEGESDDVLKQHYSLQDLQNNRATAGMLLKNSMLGGNNLIKSNSHDLGYVKSNIIHGLYNSNNNLVSNVTGIVITTLFSTYYRQHRDDPTGLQMLYQLLELTSNGNEPSIKALSKIMEDSAQFFQLEWSGNTKPMEALLDSFFRFISNPNFSPVIRSESVKCINTVIPLQTQSFIVRLDKFLEIIFQLAQNDENDLVRAQICISFSFLLEFRPDKLVSHLDGIVQFMLHLITTVNEEKVAIEACEFLHAFATSPNIPEHILQPYVKDIVPILLSKMVYNEESIVLLEASNDDDAFLEDKDEDIKPIAPRIVKKKEAGNGEDADDNEDDDDDDDDEDGDVDTQWNLRKCSAATLDVMTNILPHQVMDIAFPFLREHLGSDRWFIREATILALGAMAEGGMKYFNDGLPALIPFLVEQLNDKWAPVRKMTCWTLSRFSPWILQDHTEFLIPVLEPIINTLMDKKKDVQEAAISSVAVFIENADSELVETLFYSQLLTSFDKCLKYYKKKNLIILYDAIGRFAEKCALDETAMQIILPPLIEKWALLSDSDKELWPLLECLSCVASSLGERFMPMAPEVYNRAFRILCHCVELEAKSHQDPTIVVPEKDFIITSLDLIDGLVQGLGAHSQDLLFPQGTKDLTILKIMLECLQDPVHEVRQSCFALLGDIVYFFNSELVIGNLEDFLKLIGTEIMHNDDSDGTPAVINAIWALGLISERIDLNTYIIDMSRIILDLFTTNTQIVDSSVMENLSVTIGKMGLTHPEVFSSGAFANDSNWNKWCLSVNALDDVEEKSSAYMGFLKIINLTSTEVTMSNDTIHKIVTGLSSNVEANVFAQEIYTFLMNHSAQISAINFTPDEISFLQQFTS
Which Kd (MBP–Nab2p NLS F236L) does the source give for B1 here?
Its Kd is 66 nM.

What about the Kd (MBP–Nab2p NLS F236A) of the same binder?
The Kd was 296 nM.

What about the Kd (MBP–Nab2p NLS R235A) of the same binder?
The Kd was 203 nM.

And the Kd (MBP–Nab2p NLS R235H)?
The Kd was 63 nM.

What about the Kd [1] of the same binder?
The Kd was 21 nM.

Source: publication PMC2408616, “Modular Organization and Combinatorial Energetics of Proline–Tyrosine Nuclear Localization Signals” (PLoS Biology, 2008)
